Results taken from patent publication US20100130424A1 (Janssen / Centocor, published 2010).
Positions count from the first letter of the chain named. No end group written: not given here. *: point of attachment. Succinimide(1-Et,3-yl) = CCN1C(=O)CC(*)C1=O

T1: human CRH receptor type 2 (human, UniProt Q13324 1-411)
T1 sequence (looked up): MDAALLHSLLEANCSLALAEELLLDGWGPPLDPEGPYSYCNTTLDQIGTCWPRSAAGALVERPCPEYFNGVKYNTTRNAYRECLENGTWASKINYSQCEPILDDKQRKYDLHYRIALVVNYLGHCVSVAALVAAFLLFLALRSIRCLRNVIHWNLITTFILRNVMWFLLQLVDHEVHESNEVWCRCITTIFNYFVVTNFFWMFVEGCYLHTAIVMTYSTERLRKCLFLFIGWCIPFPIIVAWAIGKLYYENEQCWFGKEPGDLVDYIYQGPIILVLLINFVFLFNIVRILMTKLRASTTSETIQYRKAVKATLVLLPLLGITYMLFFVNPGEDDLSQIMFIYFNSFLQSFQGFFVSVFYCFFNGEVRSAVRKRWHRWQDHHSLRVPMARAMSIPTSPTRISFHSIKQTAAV

B1: Pegylated Cys-variant CRHR2 peptide agonist (NES linker, PEG about 20 kDa), SEQ ID NO: 88 (peptide)
peptide: TKFTLSLDVPTNIMNLLFNIAKAKNLRAQAAANCHLMAQI
modifications: NES-PEG (about 20 kDa) on Cys 34; C-terminal amide
B2: Cys-variant CRHR2 peptide agonist, SEQ ID NO: 36 (peptide)
peptide: TKFTLSLDVPTNIMNLLFNIAKAKNLRAQAAANACLMAQI-NH2
B3: Pegylated Cys-variant CRHR2 peptide agonist (NES linker, PEG about 20 kDa), SEQ ID NO: 89 (peptide)
peptide: B1 peptide with C34A, H35C
modifications: NES-PEG (about 20 kDa) on Cys 35; C-terminal amide
B4: Cys-variant CRHR2 peptide agonist, SEQ ID NO: 37 (peptide)
peptide: TKFTLSLDVPTNIMNLLFNIAKAKNLRAQAAANAHCMAQI-NH2
B5: Cys-variant CRHR2 peptide agonist, SEQ ID NO: 38 (peptide)
peptide: TKFTLSLDVPTNIMNLLFNIAKAKNLRAQAAANAHLCAQI-NH2
B6: Pegylated Cys-variant CRHR2 peptide agonist (NES linker, PEG about 20 kDa), SEQ ID NO: 91 (peptide)
peptide: B1 peptide with C34A, M37C
modifications: NES-PEG (about 20 kDa) on Cys 37; C-terminal amide
B7: Cys-variant CRHR2 peptide agonist, SEQ ID NO: 39 (peptide)
peptide: TKFTLSLDVPTNIMNLLFNIAKAKNLRAQAAANAHLMCQI-NH2
B8: Pegylated Cys-variant CRHR2 peptide agonist (NES linker, PEG about 20 kDa), SEQ ID NO: 92 (peptide)
peptide: B1 peptide with C34A, A38C
modifications: NES-PEG (about 20 kDa) on Cys 38; C-terminal amide
B9: Cys-variant CRHR2 peptide agonist, SEQ ID NO: 40 (peptide)
peptide: TKFTLSLDVPTNIMNLLFNIAKAKNLRAQAAANAHLMACI-NH2
B10: Pegylated Cys-variant CRHR2 peptide agonist (NES linker, PEG about 20 kDa), SEQ ID NO: 93 (peptide)
peptide: B1 peptide with C34A, Q39C
modifications: NES-PEG (about 20 kDa) on Cys 39; C-terminal amide
B11: Cys-variant CRHR2 peptide agonist, SEQ ID NO: 41 (peptide)
peptide: TKFTLSLDVPTNIMNLLFNIAKAKNLRAQAAANAHLMAQC-NH2
B12: Pegylated Cys-variant CRHR2 peptide agonist (NES linker, PEG about 20 kDa), SEQ ID NO: 94 (peptide)
peptide: B1 peptide with C34A, I40C
modifications: NES-PEG (about 20 kDa) on Cys 40; C-terminal amide
B13: Pegylated Cys-variant CRHR2 peptide agonist (NES-PEG MW2000), SEQ ID NO: 95 (peptide)
peptide: B1 peptide with A28C, C34A
modifications: NES-PEG MW2000 on Cys 28; C-terminal amide
B14: Cys-variant of stresscopin peptide with N-Ethylsuccinimide (NES) reactive group, SEQ ID NO: 42 (peptide)
peptide: TKFTLSLDVPTNIMNLLFNIAKAKNLRAQAAANAHLMAQC(Succinimide(1-Et,3-yl))-NH2
modifications: N-terminus assumed
SMILES: CC[C@H](C)[C@H](NC(=O)[C@H](CC(N)=O)NC(=O)[C@H](Cc1ccccc1)NC(=O)[C@H](CC(C)C)NC(=O)[C@H](CC(C)C)NC(=O)[C@H](CC(N)=O)NC(=O)[C@H](CCSC)NC(=O)[C@@H](NC(=O)[C@H](CC(N)=O)NC(=O)[C@@H](NC(=O)[C@@H]1CCCN1C(=O)[C@@H](NC(=O)[C@H](CC(=O)O)NC(=O)[C@H](CC(C)C)NC(=O)[C@H](CO)NC(=O)[C@H](CC(C)C)NC(=O)[C@@H](NC(=O)[C@H](Cc1ccccc1)NC(=O)[C@H](CCCCN)NC(=O)[C@@H](N)[C@@H](C)O)[C@@H](C)O)C(C)C)[C@@H](C)O)[C@@H](C)CC)C(=O)N[C@@H](C)C(=O)N[C@@H](CCCCN)C(=O)N[C@@H](C)C(=O)N[C@@H](CCCCN)C(=O)N[C@@H](CC(N)=O)C(=O)N[C@@H](CC(C)C)C(=O)N[C@@H](CCCNC(=N)N)C(=O)N[C@@H](C)C(=O)N[C@@H](CCC(N)=O)C(=O)N[C@@H](C)C(=O)N[C@@H](C)C(=O)N[C@@H](C)C(=O)N[C@@H](CC(N)=O)C(=O)N[C@@H](C)C(=O)N[C@@H](Cc1c[nH]cn1)C(=O)N[C@@H](CC(C)C)C(=O)N[C@@H](CCSC)C(=O)N[C@@H](C)C(=O)N[C@@H](CCC(N)=O)C(=O)N[C@@H](CSC1CC(=O)N(CC)C1=O)C(N)=O
B15: Pegylated Cys-variant CRHR2 peptide agonist (NES-PEG MW5000), SEQ ID NO: 96 (peptide)
peptide: B1 peptide with A28C, C34A
modifications: NES-PEG MW5000 on Cys 28; C-terminal amide
B16: Cys-variant of stresscopin peptide with N-Ethylsuccinimide (NES) reactive group, SEQ ID NO: 43 (peptide)
peptide: TKFTLSLDVPTNIMNLLFNIAKAKNLRAQAAANAC(Succinimide(1-Et,3-yl))LMAQI-NH2
modifications: N-terminus assumed
SMILES: CC[C@H](C)[C@H](NC(=O)[C@H](CCC(N)=O)NC(=O)[C@H](C)NC(=O)[C@H](CCSC)NC(=O)[C@H](CC(C)C)NC(=O)[C@H](CSC1CC(=O)N(CC)C1=O)NC(=O)[C@H](C)NC(=O)[C@H](CC(N)=O)NC(=O)[C@H](C)NC(=O)[C@H](C)NC(=O)[C@H](C)NC(=O)[C@H](CCC(N)=O)NC(=O)[C@H](C)NC(=O)[C@H](CCCNC(=N)N)NC(=O)[C@H](CC(C)C)NC(=O)[C@H](CC(N)=O)NC(=O)[C@H](CCCCN)NC(=O)[C@H](C)NC(=O)[C@H](CCCCN)NC(=O)[C@H](C)NC(=O)[C@@H](NC(=O)[C@H](CC(N)=O)NC(=O)[C@H](Cc1ccccc1)NC(=O)[C@H](CC(C)C)NC(=O)[C@H](CC(C)C)NC(=O)[C@H](CC(N)=O)NC(=O)[C@H](CCSC)NC(=O)[C@@H](NC(=O)[C@H](CC(N)=O)NC(=O)[C@@H](NC(=O)[C@@H]1CCCN1C(=O)[C@@H](NC(=O)[C@H](CC(=O)O)NC(=O)[C@H](CC(C)C)NC(=O)[C@H](CO)NC(=O)[C@H](CC(C)C)NC(=O)[C@@H](NC(=O)[C@H](Cc1ccccc1)NC(=O)[C@H](CCCCN)NC(=O)[C@@H](N)[C@@H](C)O)[C@@H](C)O)C(C)C)[C@@H](C)O)[C@@H](C)CC)[C@@H](C)CC)C(N)=O
B17: Pegylated Cys-variant CRHR2 peptide agonist (NES-PEG MW12000), SEQ ID NO: 97 (peptide)
peptide: B1 peptide with A28C, C34A
modifications: NES-PEG MW12000 on Cys 28; C-terminal amide
B18: Cys-variant of stresscopin peptide with N-Ethylsuccinimide (NES) reactive group, SEQ ID NO: 44 (peptide)
peptide: TKFTLSLDVPTNIMNLLFNIAKAKNLRAQAAAC(Succinimide(1-Et,3-yl))AHLMAQI-NH2
modifications: N-terminus assumed
SMILES: CC[C@H](C)[C@H](NC(=O)[C@H](CCC(N)=O)NC(=O)[C@H](C)NC(=O)[C@H](CCSC)NC(=O)[C@H](CC(C)C)NC(=O)[C@H](Cc1c[nH]cn1)NC(=O)[C@H](C)NC(=O)[C@H](CSC1CC(=O)N(CC)C1=O)NC(=O)[C@H](C)NC(=O)[C@H](C)NC(=O)[C@H](C)NC(=O)[C@H](CCC(N)=O)NC(=O)[C@H](C)NC(=O)[C@H](CCCNC(=N)N)NC(=O)[C@H](CC(C)C)NC(=O)[C@H](CC(N)=O)NC(=O)[C@H](CCCCN)NC(=O)[C@H](C)NC(=O)[C@H](CCCCN)NC(=O)[C@H](C)NC(=O)[C@@H](NC(=O)[C@H](CC(N)=O)NC(=O)[C@H](Cc1ccccc1)NC(=O)[C@H](CC(C)C)NC(=O)[C@H](CC(C)C)NC(=O)[C@H](CC(N)=O)NC(=O)[C@H](CCSC)NC(=O)[C@@H](NC(=O)[C@H](CC(N)=O)NC(=O)[C@@H](NC(=O)[C@@H]1CCCN1C(=O)[C@@H](NC(=O)[C@H](CC(=O)O)NC(=O)[C@H](CC(C)C)NC(=O)[C@H](CO)NC(=O)[C@H](CC(C)C)NC(=O)[C@@H](NC(=O)[C@H](Cc1ccccc1)NC(=O)[C@H](CCCCN)NC(=O)[C@@H](N)[C@@H](C)O)[C@@H](C)O)C(C)C)[C@@H](C)O)[C@@H](C)CC)[C@@H](C)CC)C(N)=O
B19: Pegylated Cys-variant CRHR2 peptide agonist (NES-PEG-NEM MW20000), SEQ ID NO: 98 (peptide)
peptide: B1 peptide with A28C, C34A
modifications: NES-PEG-NEM MW20000 on Cys 28 (double-ended linear PEG with an N-Ethylmaleimide cap at the non-linked end); C-terminal amide
B20: Cys-variant of stresscopin peptide with N-Ethylsuccinimide (NES) reactive group, SEQ ID NO: 45 (peptide)
peptide: TKFTLSLDVPTNIMNLLFNIAKAKNLRAQAAC(Succinimide(1-Et,3-yl))NAHLMAQI-NH2
modifications: N-terminus assumed
SMILES: CC[C@H](C)[C@H](NC(=O)[C@H](CCC(N)=O)NC(=O)[C@H](C)NC(=O)[C@H](CCSC)NC(=O)[C@H](CC(C)C)NC(=O)[C@H](Cc1c[nH]cn1)NC(=O)[C@H](C)NC(=O)[C@H](CC(N)=O)NC(=O)[C@H](CSC1CC(=O)N(CC)C1=O)NC(=O)[C@H](C)NC(=O)[C@H](C)NC(=O)[C@H](CCC(N)=O)NC(=O)[C@H](C)NC(=O)[C@H](CCCNC(=N)N)NC(=O)[C@H](CC(C)C)NC(=O)[C@H](CC(N)=O)NC(=O)[C@H](CCCCN)NC(=O)[C@H](C)NC(=O)[C@H](CCCCN)NC(=O)[C@H](C)NC(=O)[C@@H](NC(=O)[C@H](CC(N)=O)NC(=O)[C@H](Cc1ccccc1)NC(=O)[C@H](CC(C)C)NC(=O)[C@H](CC(C)C)NC(=O)[C@H](CC(N)=O)NC(=O)[C@H](CCSC)NC(=O)[C@@H](NC(=O)[C@H](CC(N)=O)NC(=O)[C@@H](NC(=O)[C@@H]1CCCN1C(=O)[C@@H](NC(=O)[C@H](CC(=O)O)NC(=O)[C@H](CC(C)C)NC(=O)[C@H](CO)NC(=O)[C@H](CC(C)C)NC(=O)[C@@H](NC(=O)[C@H](Cc1ccccc1)NC(=O)[C@H](CCCCN)NC(=O)[C@@H](N)[C@@H](C)O)[C@@H](C)O)C(C)C)[C@@H](C)O)[C@@H](C)CC)[C@@H](C)CC)C(N)=O
B21: Pegylated Cys-variant CRHR2 peptide agonist (NES-PEG MW30000), SEQ ID NO: 99 (peptide)
peptide: B1 peptide with A28C, C34A
modifications: NES-PEG MW30000 on Cys 28; C-terminal amide

molecular target: T1, human CRH receptor type 2; test: cell-based or functional assay

Binder	Log DR against h-SCP, cAMP [log10 ratio]	pA50, cAMP
B1	1.55	8.12 -log M
B2	0.42	9.1 -log M
B3	0.98	8.48 -log M
B4	1.05	8.58 -log M
B5	> 2.95	~6.67 -log M
B6	> 3.43	~6.23 -log M
B7	0.41	9.21 -log M
B8	1.55	8.12 -log M
B9	0.55	9.08 -log M
B10	1.47	8.2 -log M
B11	2.07	7.45 -log M
B12	> 2.39	~7 -log M
B13	0.43	9.31 -log M
B14	~1.72	~7.75 -log M
B15	1	8.74 -log M
B16	-0.32	9.79 -log M
B17	~0.74	~9 -log M
B18	~1.97	~7.5 -log M
B19	0.18	9.5 -log M
B20	-0.01	9.48 -log M
B21	0.8	8.94 -log M
